# Patent KR20230010676A
# Biological target: SARS-CoV-2 스파이크 D19 (VSV 슈도바이러스) (SARS-CoV-2) (UniProt P0DTC2)
# Assay: cell-based or functional assay
substance,measurement,value
S2D106-LS (antibody),"EC50 (neutralisation, interpolated)",3.6 ng/mL
same,"EC90 (neutralisation, interpolated)",15.4 ng/mL
same,IC50 (neutralisation),3.38 ng/mL
